Assay [1] addresses heteropentameric α1β mutated (α1βY240A) glycine receptor (rat) (UniProt P07727).
Assay [2] addresses heteropentameric α1β wild type glycine receptor (rat) (UniProt P07727).

“Interleukin-1β (from UniProt P01584 117-269) (ligand)”: the current decay time constant (τ) of glycine (50 μM)-activated currents after perfusion of IL-1β (10 ng/ml); whole-cell patch clamp, transfected HEK293T cells (Figure 4A) stood at 3370 ms in assay [1] and 35400 ms in assay [2].

For the origin of these results see paper PMC7973117.
